{"source": "patent US20040260064", "key": {"[1]": {"system": "recombinant human macrophage stimulating protein (MSP)"}, "[2]": {"system": "human MSP C672A analog", "sequence (chain, as listed by the source C672A)": "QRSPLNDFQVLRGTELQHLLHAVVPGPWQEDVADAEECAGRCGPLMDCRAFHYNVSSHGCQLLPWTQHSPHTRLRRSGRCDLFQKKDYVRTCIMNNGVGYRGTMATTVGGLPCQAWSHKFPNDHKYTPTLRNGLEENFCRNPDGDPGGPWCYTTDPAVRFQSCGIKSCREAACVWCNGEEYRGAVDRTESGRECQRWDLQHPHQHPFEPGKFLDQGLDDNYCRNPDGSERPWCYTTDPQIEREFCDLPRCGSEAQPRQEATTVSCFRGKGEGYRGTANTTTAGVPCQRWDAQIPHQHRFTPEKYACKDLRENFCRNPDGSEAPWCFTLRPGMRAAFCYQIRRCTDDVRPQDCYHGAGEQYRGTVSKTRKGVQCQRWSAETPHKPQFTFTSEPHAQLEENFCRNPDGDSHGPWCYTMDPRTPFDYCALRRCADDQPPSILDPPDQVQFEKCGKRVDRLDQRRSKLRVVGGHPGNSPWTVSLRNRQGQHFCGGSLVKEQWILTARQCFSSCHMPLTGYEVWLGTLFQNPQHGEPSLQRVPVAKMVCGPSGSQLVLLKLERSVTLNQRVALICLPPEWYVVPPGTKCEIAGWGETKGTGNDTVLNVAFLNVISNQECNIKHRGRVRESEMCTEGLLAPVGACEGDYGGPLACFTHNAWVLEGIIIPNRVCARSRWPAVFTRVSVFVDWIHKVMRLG"}, "[3]": {"system": "murine MSP C677A analog", "sequence (chain, as listed by the source C677A)": "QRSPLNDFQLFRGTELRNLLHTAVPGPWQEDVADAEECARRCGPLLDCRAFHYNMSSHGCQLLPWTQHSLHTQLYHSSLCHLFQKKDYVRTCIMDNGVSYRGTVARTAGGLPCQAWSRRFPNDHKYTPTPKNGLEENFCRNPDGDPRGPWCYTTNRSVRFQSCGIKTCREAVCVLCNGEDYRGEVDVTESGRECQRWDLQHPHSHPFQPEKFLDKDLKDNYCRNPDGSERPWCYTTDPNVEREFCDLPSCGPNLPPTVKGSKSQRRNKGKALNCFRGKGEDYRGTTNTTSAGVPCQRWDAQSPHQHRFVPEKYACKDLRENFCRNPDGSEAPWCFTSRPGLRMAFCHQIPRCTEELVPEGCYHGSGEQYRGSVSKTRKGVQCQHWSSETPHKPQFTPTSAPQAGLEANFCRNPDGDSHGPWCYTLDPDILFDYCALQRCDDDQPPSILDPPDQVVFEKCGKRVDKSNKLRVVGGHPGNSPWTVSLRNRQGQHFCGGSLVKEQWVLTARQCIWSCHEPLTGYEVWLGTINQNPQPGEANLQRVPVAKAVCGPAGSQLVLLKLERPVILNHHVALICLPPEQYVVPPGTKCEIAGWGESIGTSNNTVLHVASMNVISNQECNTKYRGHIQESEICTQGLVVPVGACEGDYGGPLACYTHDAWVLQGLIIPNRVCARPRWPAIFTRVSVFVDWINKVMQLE"}, "[4]": {"system": "recombinant murine macrophage stimulating protein (MSP)"}}}
{"substance": "human kallikrein (Enzyme System Products)", "values": [{"measurement": "cleavage of proMSP seen by SDS-PAGE under reducing conditions", "setting": "[1]", "result": "Kallikrein treatment efficiently cleaves proMSP or proMSP analog between the α and β subunits"}, {"measurement": "cleavage of proMSP analog seen by SDS-PAGE under reducing conditions", "setting": "[2]", "result": "Kallikrein treatment efficiently cleaves proMSP or proMSP analog between the α and β subunits"}, {"measurement": "cleavage of proMSP analog seen by SDS-PAGE under reducing conditions", "setting": "[3]", "result": "Kallikrein treatment efficiently cleaves proMSP or proMSP analog between the α and β subunits"}, {"measurement": "cleavage of proMSP seen by SDS-PAGE under reducing conditions", "setting": "[4]", "result": "Kallikrein treatment efficiently cleaves proMSP or proMSP analog between the α and β subunits"}]}
